One variant from IntAct's records for PubMed 9697699 can be followed below.

To fix the notation:
B1: Serine hydrolase RBBP9 (Rattus norvegicus (Rat)), O88350 (parent)
chain: MASPTKAVIVPGNGGGDVATHGWYGWVRKGLEQIPGFQCLAKNMPDPITARESIWLPFMETELHCDEKTIIIGHSSGAIAAMRYAETHQVYALILVSAYTSDLGDENERASGYFSRPWQWEKIKANCPHIIQFGSTDDPFLPWKEQQEVADRLDAKLYKFTDRGHFQNTEFHELIRVVKSMLTPAL
partner: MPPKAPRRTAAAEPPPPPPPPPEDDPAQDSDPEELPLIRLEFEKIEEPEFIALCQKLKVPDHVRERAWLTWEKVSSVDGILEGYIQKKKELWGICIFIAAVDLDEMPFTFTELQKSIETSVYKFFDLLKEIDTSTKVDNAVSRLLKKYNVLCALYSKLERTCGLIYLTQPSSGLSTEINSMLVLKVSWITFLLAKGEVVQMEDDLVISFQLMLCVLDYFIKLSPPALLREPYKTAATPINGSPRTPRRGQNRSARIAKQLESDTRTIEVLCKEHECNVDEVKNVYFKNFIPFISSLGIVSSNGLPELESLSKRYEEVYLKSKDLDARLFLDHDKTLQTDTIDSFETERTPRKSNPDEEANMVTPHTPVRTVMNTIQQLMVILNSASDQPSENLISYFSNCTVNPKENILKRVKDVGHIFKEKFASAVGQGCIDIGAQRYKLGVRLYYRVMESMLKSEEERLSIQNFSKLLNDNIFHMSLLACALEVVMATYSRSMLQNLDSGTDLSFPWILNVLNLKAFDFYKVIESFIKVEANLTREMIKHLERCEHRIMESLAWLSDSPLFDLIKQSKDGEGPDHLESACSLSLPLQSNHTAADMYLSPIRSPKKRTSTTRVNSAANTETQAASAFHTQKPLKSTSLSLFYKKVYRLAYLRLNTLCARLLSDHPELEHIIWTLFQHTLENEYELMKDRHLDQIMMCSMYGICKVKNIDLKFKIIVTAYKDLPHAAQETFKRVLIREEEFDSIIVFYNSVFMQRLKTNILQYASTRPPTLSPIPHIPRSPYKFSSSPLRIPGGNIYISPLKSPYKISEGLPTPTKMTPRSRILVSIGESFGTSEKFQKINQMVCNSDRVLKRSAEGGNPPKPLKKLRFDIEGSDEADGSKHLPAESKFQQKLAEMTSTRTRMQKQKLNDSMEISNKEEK

The variants in this test derive from B1. The following applies: with rb_rat Rb1, P33568.
Turning to L63E, the “effect of a mutation on the interaction” value was “disrupting interaction”.
